Assay results published in US8008542B2, “Compositions, cells, and plants that include BKI1, a negative regulator of BRI1-mediated BR signaling” (The Salk Institute for Biological Studies, priority 2007, dated 2011).

Legend:
BRL1 = target: T1, BRL1 (Arabidopsis thaliana, UniProt Q9ZWC8); test: Yeast two-hybrid interaction with BRL1-KD; assay type: binding
T1 construct: expressed in transfected cells; host or cells: yeast strain MaV203
T1 sequence (Q9ZWC8 859-1147 limits assumed): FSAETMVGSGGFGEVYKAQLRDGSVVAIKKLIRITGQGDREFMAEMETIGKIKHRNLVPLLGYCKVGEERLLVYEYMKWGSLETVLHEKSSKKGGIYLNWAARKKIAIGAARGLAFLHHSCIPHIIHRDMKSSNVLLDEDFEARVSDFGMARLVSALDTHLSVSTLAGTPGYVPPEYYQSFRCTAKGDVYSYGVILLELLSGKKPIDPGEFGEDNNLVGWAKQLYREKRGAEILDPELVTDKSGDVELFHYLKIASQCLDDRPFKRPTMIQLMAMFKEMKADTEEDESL
Procedure: (§1) BKI1 fused with GAL4-AD (BKI1-pEXAD502) interacts with the intracellular domain of BRI1 (BRI1-KD), but not CLV1 (CLV1-KD), BRL1 (BRL1-KD), and BRL3 (BRL3-KD), fused with GAL4-DB (in pDBLeu) in yeast. pDBLeu was used as a negative control. Each spot from left to right contains 10 μl yeast cell culture with OD600=0.2, 0.04, 0.008, and 0.0016.

TTL = target: T2, TTL (Arabidopsis thaliana, UniProt Q9LVM5); test: Yeast two-hybrid interaction with TTL; assay type: binding
T2 construct: full length TTL, and full-length BIN2 were cloned into the pDBLeu vector; expressed in transfected cells; host or cells: yeast strain MaV203
T2 sequence (Q9LVM5 1-324): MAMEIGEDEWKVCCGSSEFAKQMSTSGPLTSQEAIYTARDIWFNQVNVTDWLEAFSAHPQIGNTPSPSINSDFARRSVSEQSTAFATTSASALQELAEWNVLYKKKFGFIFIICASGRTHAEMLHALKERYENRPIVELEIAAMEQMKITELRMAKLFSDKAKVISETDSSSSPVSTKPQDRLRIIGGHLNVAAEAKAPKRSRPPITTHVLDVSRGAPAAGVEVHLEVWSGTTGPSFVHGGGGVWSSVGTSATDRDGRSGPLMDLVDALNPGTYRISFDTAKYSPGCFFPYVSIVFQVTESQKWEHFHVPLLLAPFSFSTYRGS
Procedure: (§2) A ProQuest Two-Hybrid system with Gateway technology (Invitrogen) was used. […] The full-length (BKI1-FL), and various truncated proteins, 1-252 (BKI1-ΔCT1), 1-299 (BKI1-ΔCT2), and 253-337 (BKI1-CT) of BKI1 were cloned into the pEXPAD502 vector. The kinase domain of NIK1 (NIK1-KD) (Fontes et al. (2004) Genes Dev. 18:2545), BAK1 (BAK1-KD), CLV1 (CLV1-KD), BRL1 (BRL1-KD), BRL3 (BRL3-KD), full length TTL, and full-length BIN2 were cloned into the pDBLeu vector. Interactions were tested on SD medium minus Leu, Trp, and His, and containing 25 mM 3-Amino-1,2,4-Triazole (3AT), using the yeast strain MaV203 according to the manufacturer's manual.

BRL3 = target: T3, BRL3 (Arabidopsis thaliana, UniProt Q9LJF3); test: Yeast two-hybrid interaction with BRL3-KD; assay type: binding
T3 construct: expressed in transfected cells; host or cells: yeast strain MaV203
T3 sequence (Q9LJF3 858-1136 limits assumed): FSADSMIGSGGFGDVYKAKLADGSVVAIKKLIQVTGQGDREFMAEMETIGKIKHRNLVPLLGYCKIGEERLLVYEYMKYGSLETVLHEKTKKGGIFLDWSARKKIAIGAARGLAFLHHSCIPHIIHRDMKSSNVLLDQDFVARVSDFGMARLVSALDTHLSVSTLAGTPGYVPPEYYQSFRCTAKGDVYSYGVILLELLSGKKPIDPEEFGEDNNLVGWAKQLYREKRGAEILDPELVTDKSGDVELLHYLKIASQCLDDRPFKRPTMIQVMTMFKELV
Procedure: as §1

NIK1 = target: T4, NIK1 (Arabidopsis thaliana, UniProt Q9LFS4); test: Yeast two-hybrid interaction with NIK1-KD; assay type: binding
T4 construct: The kinase domain of NIK1 (NIK1-KD) (Fontes et al. (2004) Genes Dev. 18:2545); expressed in transfected cells; host or cells: yeast strain MaV203
T4 sequence (Q9LFS4 312-593 limits assumed): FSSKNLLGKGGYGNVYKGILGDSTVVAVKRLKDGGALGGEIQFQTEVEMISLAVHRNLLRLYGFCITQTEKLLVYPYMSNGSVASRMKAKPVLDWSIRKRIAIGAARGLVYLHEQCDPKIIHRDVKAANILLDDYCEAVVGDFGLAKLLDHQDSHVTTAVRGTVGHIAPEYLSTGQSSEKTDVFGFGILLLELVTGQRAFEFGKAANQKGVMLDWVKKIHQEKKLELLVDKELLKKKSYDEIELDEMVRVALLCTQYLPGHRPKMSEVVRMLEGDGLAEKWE
Procedure: as §2

Arabidopsis seedlings = test: Hypocotyl length and growth phenotype of transgenic lines; assay type: in vivo; settings: over-expression from 35S promoter in Col-0
Procedure: BKI1's function in brassinosteroid signaling was explored in several ways. First, we made transgenic plants harboring a β-glucuronidase (GUS) reporter gene expressed from the promoter of BKI1 to observe the expression pattern of BKI1 (FIG. 1G-J) during development. […] To explore the function of BKI1 in BRI1 signaling, we created RNAi (RNA interference) lines to knockdown BKI1 RNA levels.
Seedlings were grown in short day photoperiods for seven days. At least ten short-day grown seedlings were measured. In FIGS. 2A-B the pBKI1::GUS line was used as a control (control). RNAi-2 and RNAi-7 were two independent RNAi knockdown lines for BKI1. In FIG. 2 C-E, phenotype of plants overexpressing BKI1-FLAG, with Col-0 (left) and a BKI1-FLAG line (right) are shown. 2C. Short-day grown seedlings. 2D. Long-day grown seedlings. 2E. Long-day grown adult plants. In FIG. 2F, leaf morphology of seedlings grown in short days. Col-0 (right) and a BKI1-FLAG line (left) are shown. In FIG. 2G, over-expression of BKI1-YFP leads to a reduced response (hypocotyl length) to BL. At least twenty short-day grown seedlings were measured. In FIG. 2H, over-expression of BKI1-YFP leads to an enhanced response to BRZ220. At least twenty dark-grown seedlings were measured. In FIG. 2I, over-expression of BKI1-YFP results in reduced accumulation of dephosphorylated BES1. […]

B1: BKI1: BRI1-interacting protein of 337 amino acids, negative regulator of brassinosteroid signaling (SEQ ID NO:1) (protein, listed as Arabidopsis thaliana)
chain: METNLQQVKNSSQTFSEKQNPKQEASPSPISSTCSSPSHDFSFTISLQPLSSSSKHISPTLRSPSKTTSSYQQTDPFAVDLSPADEIFFHGHLLPLHLLSHLPVSPRTSTGSYNDGFTLPVKDILPDQPTNNNNNTENAITNISTEAKDDNTEDKAEGEIRVKTKPIKSFSLFGLSKWRKGFESNEREQEQQQQKIKKPMSLDLSHAVKKYIRMLFQKRGNGTQFWNRRQTSSYSFSSSLMGPNGNSKTMINGSYNKRDLIRGRRGELFSAPASMRTSPTNSGHLRVSTAGLSSSSGSTSSSSSDSTMEELQAAIQAAIAHCKNSSAVDRDDKVKDS
interaction with kinase domain of BRL1 in yeast (BRL1): does not interact | interaction with TTL in yeast (TTL): not | interaction with kinase domain of BRL3 in yeast (BRL3): does not interact | interaction with kinase domain of NIK1 in yeast (NIK1): not | plant phenotype on over-expression (Arabidopsis seedlings): dwarf plants
